For this experiment, the target named is Toll-like Receptor 5 (UniProt O60602). Briefly: cell-based or functional assay.

B1: ngSTF2.HA1-1His(PR8) (protein)
chain: AQVINTNSLSLLTQNNLQKSQSALGTAIERLSSGLRINSAKDDAAGQAIANRFTANIKGLTQASRNANDGISIAQTTEGALNEINNNLQRVRELAVQSAQSTNSQSDLDSIQAEITQRLNEIDRVSGQTQFNGVKVLAQDNTLTIQVGANDGETIDIDLKQINSQTLGLDSLNVQKAYDVKDTAVTTKAYANQGTTLDVSGLDDAAIKAATGGTQGTASVTGGAVKFDADNNKYFVTIGGFTGADAAKNGDYEVNVATDGTVTLAAGATKTTMPAGATTKTEVQELKDTPAVVSADAKNALIAGGVDATDANGAELVKMSYTDKNGKTIEGGYALKAGDKYYAADYDEATGAIKAKTTSYTAADGTTKTAANQLGGVDGKTEVVTIDGKTYQASKAAGHDFKAQPELAEAAAKTTENPLQKIDAALAQVDALRSDLGAVQNRFNSAITNLGNTVNQLSEARSRIEDSDYATEVSQMSRAQILQQAGTSVLAQANQVPQNVLSLLASGSGSGSSHNGKLCRLKGIAPLQLGKCNIAGWLLGNPECDPLLPVRSWSYIVETPNSENGICYPGDFIDYEELREQLSSVSSFERFEIFPKESSWPNHNTNGVTAACSHEGKSSFYRNLLWLTEKEGSYPKLKNSYVNKKGKEVLVLWGIHHPPNSKEQQNLYQNENAYVSVVTSNYNRRFTPEIAERPKVRDQAGRMNYYWTLLKPGDTIIFEANGNLIAPMYAFALSRGFGSGIITSQASMHECNTKCQTPLGAIQSSLPYQNIHPVTIGECPKYVRHHHHHH
On to B1, for which the TLR activity (EC50, ng/ml); IL-8 secretion by HEK293 cells came out at 30 ng/mL.

The values are drawn from patent US20070224205A1.
